From patent US20160031978

Molecular target: Δ144-273 tau (full-length tau with deletion of amino acids 144-273) (UniProt P10636)
Sequence (P10636 whole entry, looked up, stated change not applied, the tested form may be a part): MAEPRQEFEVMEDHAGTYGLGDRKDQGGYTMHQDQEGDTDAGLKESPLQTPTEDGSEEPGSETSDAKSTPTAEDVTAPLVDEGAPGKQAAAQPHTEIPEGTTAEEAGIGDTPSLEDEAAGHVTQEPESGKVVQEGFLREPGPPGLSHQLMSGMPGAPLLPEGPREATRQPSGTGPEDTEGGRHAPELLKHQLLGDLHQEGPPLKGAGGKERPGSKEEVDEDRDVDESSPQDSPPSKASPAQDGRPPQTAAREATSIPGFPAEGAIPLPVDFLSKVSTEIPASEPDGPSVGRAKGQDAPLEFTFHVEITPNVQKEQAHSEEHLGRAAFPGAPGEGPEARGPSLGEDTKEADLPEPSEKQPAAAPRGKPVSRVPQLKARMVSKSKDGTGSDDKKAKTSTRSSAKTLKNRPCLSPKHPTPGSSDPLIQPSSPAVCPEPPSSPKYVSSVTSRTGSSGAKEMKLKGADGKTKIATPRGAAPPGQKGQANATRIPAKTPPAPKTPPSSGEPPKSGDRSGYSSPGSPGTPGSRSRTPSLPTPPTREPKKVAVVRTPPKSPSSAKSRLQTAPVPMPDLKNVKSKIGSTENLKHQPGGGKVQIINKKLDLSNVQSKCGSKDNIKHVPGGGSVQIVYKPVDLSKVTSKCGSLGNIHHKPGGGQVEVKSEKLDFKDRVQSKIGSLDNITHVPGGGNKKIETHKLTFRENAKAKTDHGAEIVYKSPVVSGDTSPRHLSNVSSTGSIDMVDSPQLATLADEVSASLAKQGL

## active fyn kinase
  in vitro phosphorylation at Tyr18 (9G3/R1 immunoblot ratio): When compared to wild-type tau, AT8 tau and A144-273 tau had a slower rate and lower maximal level of phosphorylation at Tyr18
